Laboratory results published in patent US20150232510A1.

Biological target: Angiotensin Converting Enzyme, from rabbit lung (SIGMA) (rabbit) (UniProt P12822)
Experiment: cell-based or functional assay

Chain of UniProt P12822 (P12822 34-1310 limits assumed): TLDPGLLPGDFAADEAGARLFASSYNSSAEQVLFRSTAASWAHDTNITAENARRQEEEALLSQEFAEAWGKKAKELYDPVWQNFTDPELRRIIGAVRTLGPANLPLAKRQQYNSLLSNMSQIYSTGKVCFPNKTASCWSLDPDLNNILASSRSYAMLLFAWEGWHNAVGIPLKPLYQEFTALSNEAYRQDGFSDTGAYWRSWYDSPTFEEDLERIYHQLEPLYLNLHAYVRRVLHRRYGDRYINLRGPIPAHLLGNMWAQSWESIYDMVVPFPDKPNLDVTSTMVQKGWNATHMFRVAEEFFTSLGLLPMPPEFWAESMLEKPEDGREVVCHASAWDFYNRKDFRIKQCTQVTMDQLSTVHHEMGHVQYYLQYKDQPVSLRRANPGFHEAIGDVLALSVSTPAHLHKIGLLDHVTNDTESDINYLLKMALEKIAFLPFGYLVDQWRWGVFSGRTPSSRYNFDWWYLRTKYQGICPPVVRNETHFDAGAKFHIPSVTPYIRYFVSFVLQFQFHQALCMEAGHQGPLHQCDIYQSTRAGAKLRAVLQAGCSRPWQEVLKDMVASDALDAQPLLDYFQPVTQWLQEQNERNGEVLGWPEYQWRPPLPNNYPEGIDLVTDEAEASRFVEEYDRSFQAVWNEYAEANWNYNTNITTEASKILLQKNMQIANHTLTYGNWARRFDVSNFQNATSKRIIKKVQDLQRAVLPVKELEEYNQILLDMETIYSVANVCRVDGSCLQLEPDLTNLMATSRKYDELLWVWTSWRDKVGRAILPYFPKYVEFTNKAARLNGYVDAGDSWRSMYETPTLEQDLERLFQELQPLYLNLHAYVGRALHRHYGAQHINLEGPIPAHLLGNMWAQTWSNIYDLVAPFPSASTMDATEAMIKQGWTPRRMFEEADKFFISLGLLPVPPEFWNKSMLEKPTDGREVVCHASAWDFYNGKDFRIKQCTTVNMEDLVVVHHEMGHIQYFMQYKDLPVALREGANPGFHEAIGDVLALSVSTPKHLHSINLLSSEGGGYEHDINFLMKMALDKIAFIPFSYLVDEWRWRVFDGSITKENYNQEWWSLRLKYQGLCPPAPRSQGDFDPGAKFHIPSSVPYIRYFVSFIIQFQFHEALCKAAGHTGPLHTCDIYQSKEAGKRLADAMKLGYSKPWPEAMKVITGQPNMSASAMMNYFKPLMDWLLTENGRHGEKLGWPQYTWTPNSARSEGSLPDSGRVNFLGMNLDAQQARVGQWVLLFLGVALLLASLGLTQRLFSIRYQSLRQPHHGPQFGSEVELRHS

Row | ACE inhibiting activity, 50% inhibition concentration | Substance
1 | 24.8 µg/mL | Val-Pro-Ala (peptide)
2 | 132 µg/mL | Val-Pro-Lys (peptide)

Biological target: Recombinant Human DPPIV/CD26 (R&D Systems, Inc.) (human) (UniProt P27487)
Experiment: cell-based or functional assay

Chain of UniProt P27487 (P27487 29-766 limits assumed): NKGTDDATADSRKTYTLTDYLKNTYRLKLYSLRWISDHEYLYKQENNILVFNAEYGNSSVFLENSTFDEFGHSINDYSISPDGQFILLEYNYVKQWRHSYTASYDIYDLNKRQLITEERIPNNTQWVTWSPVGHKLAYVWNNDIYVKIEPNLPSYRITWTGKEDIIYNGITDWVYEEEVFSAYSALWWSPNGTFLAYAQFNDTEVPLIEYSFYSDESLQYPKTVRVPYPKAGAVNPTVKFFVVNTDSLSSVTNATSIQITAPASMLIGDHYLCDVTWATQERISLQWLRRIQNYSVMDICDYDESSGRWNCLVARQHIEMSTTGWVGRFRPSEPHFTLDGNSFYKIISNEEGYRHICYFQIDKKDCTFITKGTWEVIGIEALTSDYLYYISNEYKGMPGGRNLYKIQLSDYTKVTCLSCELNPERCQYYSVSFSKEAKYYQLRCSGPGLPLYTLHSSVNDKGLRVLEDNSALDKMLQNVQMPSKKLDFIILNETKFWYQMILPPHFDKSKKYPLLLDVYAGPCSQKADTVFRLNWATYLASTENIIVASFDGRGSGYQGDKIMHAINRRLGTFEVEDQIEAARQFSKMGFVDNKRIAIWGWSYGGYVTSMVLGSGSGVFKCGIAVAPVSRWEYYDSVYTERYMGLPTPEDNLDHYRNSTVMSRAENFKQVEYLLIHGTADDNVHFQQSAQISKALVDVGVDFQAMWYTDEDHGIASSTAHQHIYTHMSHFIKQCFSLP

Row | DPP-4 inhibiting activity IC50(µg/ml) | concentration for 50% inhibition of the enzymatic activity (dipeptidyl peptidase-IV inhibiting ability of HPLC Fraction 2) | Substance
3 | 1340 µg/mL |  | Ile-Pro-Pro (peptide)
4 | 486 µg/mL |  | LY (peptide)
5 | 1.9 µg/mL | 2 µg/mL | Val-Pro-Ala (peptide)
6 | 5.7 µg/mL |  | Val-Pro-Asn (peptide)
7 | 2.6 µg/mL |  | Val-Pro-Gln (peptide)
8 | 3.4 µg/mL |  | Val-Pro-Gly (peptide)
9 | 10.4 µg/mL |  | Val-Pro-Lys (peptide)
10 | > 2000 µg/mL |  | Val-Pro-Pro (peptide)
11 | 5.17 µg/mL |  | Val-Pro-Ser (peptide)
12 | 7.15 µg/mL |  | Val-Pro-Tyr (peptide)
13 | 1 µg/mL |  | Val-Pro-Val (peptide)
